Results taken from patent US10428140B2, “Anti-EphA4 antibody” (EISAI R&D MANAGEMENT CO., LTD., priority 2015, dated 2019).
Substitutions are numbered along the chain they refer to.

B1: 143 (antibody, V domains shown)
VH: QIQLVQSGSELKKPGASVKVSCKASGYTFTDYSMHWVRQAPGQGLKWMGWINTETGEPTYADDFKGRFVFSLDTSVSTAYLQISSLKAEDTAVYYCARIPLYYYGSRYWYFDVWGQGTTVTVSS
VL: DIQMTQSPSSLSASVGDRVTITCRASENIYRNLAWYQQKPGKAPKLLVYAATNLADGVPSRFSGSGSGTDYTLTISSLQPEDFATYYCQHFWGTPWTFGQGTKVEIK
modifications: synthetic humanized antibody heavy chain variable region sequence; synthetic humanized antibody light chain variable region sequence
B2: 145 (antibody, V domains shown)
VH: B1 VH with I2V
VL: B1 VL with V48L, P80S
modifications: synthetic humanized antibody heavy chain variable region sequence; synthetic humanized antibody light chain variable region sequence
B3: 154 (antibody, V domains shown)
VH: B1 VH with I2V, K46E
VL: B1 VL with V48L, P80S
modifications: synthetic humanized antibody heavy chain variable region sequence; synthetic humanized antibody light chain variable region sequence
B4: 157 (antibody, V domains shown)
VH: B1 VH with I2V, K46E, D62Q, D63G, K65T
VL: B1 VL with K45Q, V48L
modifications: synthetic humanized antibody heavy chain variable region sequence; synthetic humanized antibody light chain variable region sequence
B5: 151 (antibody, V domains shown)
VH: B1 VH with D62Q, D63G, K65T
VL: B1 VL with V48L, P80S
modifications: synthetic humanized antibody heavy chain variable region sequence; synthetic humanized antibody light chain variable region sequence
B6: 152 (antibody, V domains shown)
VH: B1 VH with I2V, K46E, D62Q, D63G, K65T
VL: B1 VL with V48L, P80S
modifications: synthetic humanized antibody heavy chain variable region sequence; synthetic humanized antibody light chain variable region sequence
B7: 153 (antibody, V domains shown)
VH: B1 VH with I2V, D62Q, D63G, K65T
VL: B1 VL with V48L, P80S
modifications: synthetic humanized antibody heavy chain variable region sequence; synthetic humanized antibody light chain variable region sequence
B8: 158 (antibody, V domains shown)
VH: B1 VH with I2V, D62Q, D63G, K65T
VL: B1 VL with K45Q, V48L
modifications: synthetic humanized antibody heavy chain variable region sequence; synthetic humanized antibody light chain variable region sequence
B9: 155 (antibody, V domains shown)
VH: B1 VH
VL: B1 VL with V48L, P80S
modifications: synthetic humanized antibody heavy chain variable region sequence; synthetic humanized antibody light chain variable region sequence

These molecules were tested against SEAP-His (Homo sapiens, UniProt P05187) (assay: Selectivity ELISA of humanized antibodies for human Eph receptor). Conditions: coated protein 1 nM.
Format: binding
Method in brief: (§1)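 Steps: coat anti-His antibody; block, then 1% BlockAce overnight at 4 °C; add Eph receptor extracellular region-SEAP-His (1 nM final) 1 h; add humanized antibody 1 h; add HRP anti-IgG 1 h; develop TMB; stop with acid; read 450 nm.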

Sequence of SEAP-His (P05187 23-511 limits assumed): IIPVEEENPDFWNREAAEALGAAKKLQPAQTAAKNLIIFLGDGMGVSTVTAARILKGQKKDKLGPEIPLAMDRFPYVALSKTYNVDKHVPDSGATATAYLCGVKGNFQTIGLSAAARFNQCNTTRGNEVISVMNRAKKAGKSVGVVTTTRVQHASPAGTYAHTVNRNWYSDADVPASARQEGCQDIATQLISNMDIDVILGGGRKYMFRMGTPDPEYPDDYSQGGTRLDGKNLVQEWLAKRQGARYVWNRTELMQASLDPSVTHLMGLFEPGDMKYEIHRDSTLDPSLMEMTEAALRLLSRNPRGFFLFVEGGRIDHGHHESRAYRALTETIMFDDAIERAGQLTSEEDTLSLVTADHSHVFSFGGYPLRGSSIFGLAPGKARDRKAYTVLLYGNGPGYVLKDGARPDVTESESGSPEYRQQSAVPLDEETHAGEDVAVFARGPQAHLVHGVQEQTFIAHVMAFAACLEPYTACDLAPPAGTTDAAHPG

Molecule | SEAP-His: absorbance at 450 nm, percentage with respect to hEphA4-SEAP-His as 100% [%]
B1 | 6.3
B2 | 6.4
B3 | 6.3
B4 | 6.1
B5 | 6.8
B6 | 5.4
B7 | 5.9
B8 | 6.3
B9 | 5.8

Each molecule was assayed against T1, human EphA2 (Homo sapiens, UniProt P29317) in the same assay as above. Conditions: coated protein 1 nM.
T1 construct: a protein of the extracellular region of each human Eph receptor fused with the SEAP protein and the His tag; made in house; host or cells: Expi293F cells (culture supernatant)
Format: binding
Method in brief: as §1

T1 sequence (P29317 24-537 limits assumed): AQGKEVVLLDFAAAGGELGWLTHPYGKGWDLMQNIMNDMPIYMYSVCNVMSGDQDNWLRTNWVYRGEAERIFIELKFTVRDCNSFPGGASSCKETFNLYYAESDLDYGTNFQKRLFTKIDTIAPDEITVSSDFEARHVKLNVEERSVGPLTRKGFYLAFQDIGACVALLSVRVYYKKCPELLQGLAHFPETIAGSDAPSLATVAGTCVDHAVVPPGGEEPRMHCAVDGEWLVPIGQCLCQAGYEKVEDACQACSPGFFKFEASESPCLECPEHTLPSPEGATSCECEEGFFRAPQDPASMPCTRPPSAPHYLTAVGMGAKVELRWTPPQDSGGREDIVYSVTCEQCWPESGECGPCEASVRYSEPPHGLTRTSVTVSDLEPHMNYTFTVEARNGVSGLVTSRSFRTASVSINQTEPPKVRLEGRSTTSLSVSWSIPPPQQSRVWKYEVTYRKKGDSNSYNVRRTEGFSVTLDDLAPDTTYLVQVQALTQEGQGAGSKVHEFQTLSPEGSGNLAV

Molecule | hEphA2-SEAP-: absorbance at 450 nm, percentage with respect to hEphA4-SEAP-His as 100% [%]
B1 | 5.7
B2 | 6.5
B3 | 6.2
B4 | 6.3
B5 | 6.9
B6 | 5.8
B7 | 6.0
B8 | 6.7
B9 | 5.5

These molecules were tested against T2, human EphA3 (Homo sapiens, UniProt P29320) in the same assay as above. Conditions: coated protein 1 nM.
T2 construct: a protein of the extracellular region of each human Eph receptor fused with the SEAP protein and the His tag; made in house; host or cells: Expi293F cells (culture supernatant)
T2 sequence (P29320 21-541 limits assumed): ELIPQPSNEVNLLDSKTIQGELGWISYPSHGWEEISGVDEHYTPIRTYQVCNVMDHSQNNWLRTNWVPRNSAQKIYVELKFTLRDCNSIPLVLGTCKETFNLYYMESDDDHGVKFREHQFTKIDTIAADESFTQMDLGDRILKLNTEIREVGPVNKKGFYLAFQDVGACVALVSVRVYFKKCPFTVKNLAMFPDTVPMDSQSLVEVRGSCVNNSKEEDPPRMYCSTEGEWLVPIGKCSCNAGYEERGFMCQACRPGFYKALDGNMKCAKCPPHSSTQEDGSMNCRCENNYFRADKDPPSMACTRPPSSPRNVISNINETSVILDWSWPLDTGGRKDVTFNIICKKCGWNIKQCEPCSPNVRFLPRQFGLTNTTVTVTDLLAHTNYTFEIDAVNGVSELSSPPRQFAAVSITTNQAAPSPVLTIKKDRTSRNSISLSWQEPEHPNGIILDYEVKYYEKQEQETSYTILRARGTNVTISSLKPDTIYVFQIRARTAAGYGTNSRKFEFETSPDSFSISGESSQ
Format: binding
Method in brief: as §1

Molecule | hEphA3-SEAP-: absorbance at 450 nm, percentage with respect to hEphA4-SEAP-His as 100% [%]
B1 | 5.6
B2 | 6.6
B3 | 6.2
B4 | 6.4
B5 | 6.9
B6 | 5.8
B7 | 6.1
B8 | 6.5
B9 | 5.6

These molecules were tested against T3, human EphA8 (Homo sapiens, UniProt P29322) in the same assay as above. Conditions: coated protein 1 nM.
T3 construct: a protein of the extracellular region of each human Eph receptor fused with the SEAP protein and the His tag; made in house; host or cells: Expi293F cells (culture supernatant)
T3 sequence (P29322 28-542 limits assumed): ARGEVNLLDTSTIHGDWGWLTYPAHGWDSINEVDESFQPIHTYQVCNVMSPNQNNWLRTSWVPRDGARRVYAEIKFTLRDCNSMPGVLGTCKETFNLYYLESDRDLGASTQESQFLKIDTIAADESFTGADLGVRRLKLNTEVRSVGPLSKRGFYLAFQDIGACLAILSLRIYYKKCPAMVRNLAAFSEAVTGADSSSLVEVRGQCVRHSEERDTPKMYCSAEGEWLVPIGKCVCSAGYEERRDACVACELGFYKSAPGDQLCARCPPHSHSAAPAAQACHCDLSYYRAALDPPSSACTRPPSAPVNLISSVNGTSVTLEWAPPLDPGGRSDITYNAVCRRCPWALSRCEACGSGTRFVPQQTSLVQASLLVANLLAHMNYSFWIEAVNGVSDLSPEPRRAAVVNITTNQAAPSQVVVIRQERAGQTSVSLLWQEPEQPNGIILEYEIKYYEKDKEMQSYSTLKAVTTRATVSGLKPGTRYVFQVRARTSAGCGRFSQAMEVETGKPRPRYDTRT
Format: binding
Method in brief: as §1

Molecule | hEphA8-SEAP-: absorbance at 450 nm, percentage with respect to hEphA4-SEAP-His as 100% [%]
B1 | 6.0
B2 | 6.6
B3 | 5.5
B4 | 6.0
B5 | 6.9
B6 | 6.0
B7 | 6.1
B8 | 6.4
B9 | 5.5

What follows are molecules tested against T4, human EphB3 (Homo sapiens, UniProt P54753) in the same assay as above. Conditions: coated protein 1 nM.
T4 construct: a protein of the extracellular region of each human Eph receptor fused with the SEAP protein and the His tag; made in house; host or cells: Expi293F cells
T4 sequence (P54753 34-559 limits assumed): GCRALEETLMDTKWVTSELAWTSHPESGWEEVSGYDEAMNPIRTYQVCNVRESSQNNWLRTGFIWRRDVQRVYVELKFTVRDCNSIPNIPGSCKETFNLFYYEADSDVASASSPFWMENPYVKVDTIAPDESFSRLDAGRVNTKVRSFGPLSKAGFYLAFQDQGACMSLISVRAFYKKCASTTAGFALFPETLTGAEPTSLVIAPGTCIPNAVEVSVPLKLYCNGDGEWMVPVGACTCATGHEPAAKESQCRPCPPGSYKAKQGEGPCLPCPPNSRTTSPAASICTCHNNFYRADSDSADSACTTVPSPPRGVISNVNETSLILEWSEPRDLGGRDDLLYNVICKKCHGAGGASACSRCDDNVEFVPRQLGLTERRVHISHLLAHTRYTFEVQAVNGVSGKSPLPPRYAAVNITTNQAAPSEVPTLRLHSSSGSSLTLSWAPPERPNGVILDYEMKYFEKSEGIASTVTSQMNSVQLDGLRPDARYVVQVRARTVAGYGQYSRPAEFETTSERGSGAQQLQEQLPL
Format: binding
Method in brief: as §1

Molecule | hEphB3-SEAP-: absorbance at 450 nm, percentage with respect to hEphA4-SEAP-His as 100% [%]
B1 | 5.9
B2 | 6.7
B3 | 6.2
B4 | 6.4
B5 | 7.3
B6 | 6.0
B7 | 5.9
B8 | 6.5
B9 | 5.5
